Reference: patent publication US20240270846A1 (published 2024)
Positions count from the first letter of the chain named. Names and notes keep the numbering of the source.

B1: CE115HA000 A102Y one-arm antibody (antibody, human IgG1, kappa, L234A L235A, N297A, name in Kabat numbering)
heavy: QVQLVESGGGVVQPGRSLRLSCAASGFTFSNAWMHWVRQAPGKGLEWVAQIKAKSNNYATYYAESVKGRFTISRDDSKNSLYLQMNSLKTEDTAVYYCRYVHYGAYYGVDYWGQGTTVTVSSASTKGPSVFPLAPSSKSTSGGTAALGCLVKDYFPEPVTVSWNSGALTSGVHTFPAVLQSSGLYSLSSVVTVPSSSLGTQTYICNVNHKPSNTKVDKKVEPKSCDKTHTCPPCPAPEAAGGPSVFLFPPKPKDTLMISRTPEVTCVVVDVSHEDPEVKFNWYVDGVEVHNAKTKPREEQYASTYRVVSVLTVLHQDWLNGKEYKCKVSNKALPAPIEKTISKAKGQPREPQVYTLPPSRCELTKNQVSLSCAVKGFYPSDIAVEWESNGQPENNYKTTPPVLDSDGSFFLVSKLTVDKSRWQQGNVFSCSVMHEALHNHYTQKSLSLSPDYKDDDDK
chain: EPKSSDKTHTCPPCPAPELLGGPSVFLFPPKPKDTLMISRTPEVTCVVVDVSHEDPEVKFNWYVDGVEVHNAKTKPREEQYNSTYRVVSVLTVLHQDWLNGKEYKCKVSNKALPAPIEKTISKAKGQPREPQVCTLPPSRDELTKNQVSLWCLVKGFYPSDIAVEWESNGQPENNYKTTPPVLDSDGSFFLYSKLTVDKSRWQQGNVFSCSVMHEALHNRYTQKSLSLSP
light: DIVMTQSPLSLPVTPGEPASISCRSSQSLVHSNRNTYLHWYQQKPGQAPRLLIYKVSNRFSGVPDRFSGSGSGTDFTLKISRVEAEDVGVYYCGQGTQVPYTFGQGTKLEIKRTVAAPSVFIFPPSDEQLKSGTASVVCLLNNFYPREAKVQWKVDNALQSGNSQESVTEQDSKDSTYSLSSTLTLSKADYEKHKVYACEVTHQGLSSPVTKSFNRGEC
notes: one-arm antibody
B2: CE115HA000 D72A one-arm antibody (antibody, human IgG1, kappa, L234A L235A, N297A, name in Kabat numbering)
heavy: B1 heavy with D75A, Y111A
chain: B1 chain
light: B1 light
notes: one-arm antibody
B3: CE115HA000 D73R one-arm antibody (antibody, human IgG1, kappa, L234A L235A, N297A, name in Kabat numbering)
heavy: B1 heavy with D76R, Y111A
chain: B1 chain
light: B1 light
notes: one-arm antibody
B4: CE115HA000 D73E one-arm antibody (antibody, human IgG1, kappa, L234A L235A, N297A, name in Kabat numbering)
heavy: B1 heavy with D76E, Y111A
chain: B1 chain
light: B1 light
notes: one-arm antibody
B5: CE115HA000 D73A one-arm antibody (antibody, human IgG1, kappa, L234A L235A, N297A, name in Kabat numbering)
heavy: B1 heavy with D76A, Y111A
chain: B1 chain
light: B1 light
notes: one-arm antibody
B6: CE115HA000 D72V one-arm antibody (antibody, human IgG1, kappa, L234A L235A, N297A, name in Kabat numbering)
heavy: B1 heavy with D75V, Y111A
chain: B1 chain
light: B1 light
notes: one-arm antibody
B7: CE115HA000 D72E one-arm antibody (antibody, human IgG1, kappa, L234A L235A, N297A, name in Kabat numbering)
heavy: B1 heavy with D75E, Y111A
chain: B1 chain
light: B1 light
notes: one-arm antibody
B8: CE115HA000 D73G one-arm antibody (antibody, human IgG1, kappa, L234A L235A, N297A, name in Kabat numbering)
heavy: B1 heavy with D76G, Y111A
chain: B1 chain
light: B1 light
notes: one-arm antibody
B9: CE115HA000 D73N one-arm antibody (antibody, human IgG1, kappa, L234A L235A, N297A, name in Kabat numbering)
heavy: B1 heavy with D76N, Y111A
chain: B1 chain
light: B1 light
notes: one-arm antibody
B10: CE115HA000 D73K one-arm antibody (antibody, human IgG1, kappa, L234A L235A, N297A, name in Kabat numbering)
heavy: B1 heavy with D76K, Y111A
chain: B1 chain
light: B1 light
notes: one-arm antibody

Biological target: T1, CD3 epsilon homodimer protein (UniProt P07766 23-126)
T1 construct: Construct of the homodimer protein is not described; also called CD3 (CD3 epsilon)
Experiment: SPR (Biacore T200), CD3 epsilon homodimer on CM4 chip, one-arm antibody as analyte; ratio to unaltered CE115HA000;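 note: surface plasmon resonance run at 25 °C with HBS-EP+ as running buffer, CD3 epsilon homodimer attached by amine coupling, antibody passed over as analyte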

T1 sequence (P07766 23-126): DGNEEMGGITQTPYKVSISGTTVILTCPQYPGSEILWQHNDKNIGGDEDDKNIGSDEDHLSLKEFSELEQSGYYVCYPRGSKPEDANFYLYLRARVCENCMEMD

KD ratio (KD value of CE115HA000/KD value of the altered form)	Binder
1	B1
1.19	B2
0.79	B3
0.56	B4
0.73	B5
1.17	B6
0.73	B7
0.78	B8
0.7	B9
0.74	B10
